According to publication PMC6497050:
Where two headings read alike, the source gives them in different places.

Columns and labels:
importin α7 [1] = target: importin α7 (UniProt O60684); assay: fluorescence polarisation
importin α7 [2] = target: importin α7 (UniProt O60684); assay: fluorescence polarisation; remark: listed apart in the source

Substance “wild type LANS (Light Activated Nuclear Shuttle) (from UniProt O49003 404-546) (designed binder)” has a Kd (importin α7 [1]) of 30.4 µM and a Kd (importin α7 [2]) of 1.3 µM.
